Target: the molecule itself
Assay: co-sedimentation

B1: apoA-IV 1‒70/K58E variant (domain or fragment, human)
chain: GPEVSADQVATVMWDYFSQLSNNAKEAVEHLQKSELTQQLNALFQDKLGEVNTYAGDLQEKLVPFATELHER
  binding result: binds

From article PMC12003865 (Scientific Reports, 2025)
